T1: human Rh(D) antigen (human, UniProt Q02161 2-417)
T1 construct: whole, on cells; also called wt; wild-type Rh(D) on Rh(D)-positive RBCs
T1 sequence (looked up): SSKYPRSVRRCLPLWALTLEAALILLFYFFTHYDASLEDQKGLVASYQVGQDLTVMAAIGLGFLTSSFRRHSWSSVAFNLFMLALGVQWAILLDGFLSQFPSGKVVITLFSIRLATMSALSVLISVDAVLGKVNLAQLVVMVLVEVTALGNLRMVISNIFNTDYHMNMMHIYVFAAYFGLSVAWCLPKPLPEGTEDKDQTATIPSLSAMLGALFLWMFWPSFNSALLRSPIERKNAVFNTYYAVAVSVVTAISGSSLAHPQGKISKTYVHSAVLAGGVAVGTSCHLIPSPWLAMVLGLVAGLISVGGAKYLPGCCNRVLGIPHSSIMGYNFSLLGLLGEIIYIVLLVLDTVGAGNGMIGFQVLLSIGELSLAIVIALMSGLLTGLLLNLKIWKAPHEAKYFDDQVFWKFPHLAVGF


Each binder was assayed against T1, human Rh(D) antigen (assay: Fab/phage agglutination (anti-M13)).
Method: Following a one-hour incubation at 37° C., the RBCs were washed 3 times with 2 ml of cold PBS to remove unbound antibody. The resulting RBC pellets were resuspended in 100 μl of a 10 μg/ml solution of sheep anti-M13 antibody (5 Prime-3 Prime, Boulder, Colo.) for Fab/phage experiments or goat anti-human κ or λ light chain antibody (Tago, Burlingame, Calif.) for γ₁κ or γ₁λ soluble Fab experiments, respectively. The RBC suspensions were transferred to the round-bottomed wells of a 96-well microplate and left undisturbed for […]. Negative reactions show sharp ˜2 millimeter diameter RBC spots whereas the RBCs in agglutinated wells form a thin carpet coating the entire floor of the well (Siegel et al., 1997, J. Immunol. Meth. 206:73). Agglutination titers for recombinant antibodies were determined by performing serial 2-fold dilutions in 1% BSA/PBS.
Fifty-six randomly chosen colonies were selected, and monoclonal Fab/phage preparations were separately produced from each of these individual colonies, using the methods described herein in Example 1. Rh(D) specificity was determined by indirect agglutination using anti-M13 antibody, as described herein in Examples 1 and 2.

Row | Binder | binding result
1 | SH13 (Fab, V domains shown, Fab/phage) VH: EVQLLESGGGVVQPGRSLRLSCAASGFTFSSYGMHWVRQAPGKGLEWVAVVYYDGSNKHYSDSVKGRFTISRDNSKNTLYLQMDSLRAEDTAVYYCARERNFRSGYSRYYYGMDVWGPGTTVTVSS VL: not shown | binds
2 | SH17 (Fab, V domains shown, Fab/phage) VH: EVQLLESGGGLVQPGGSLRLSCGASGIPFVSSWMAWVRQAPGKGLEWVANIKQDGSKKNYVDSVEGRFTISRDNAKNSLYLQMDSLRAEDTRIYYCARDSLTCFDYWGQGALVTVSS VL: AELQDPVVSVALGQTVRITCQGDGLRSYYASWYQQKPGQAPKLVMYGRNNRPSGIPGRFSGSSSGQTAALTITGTQAEDEADYYCQSRATSGNPVVFGGGTKLTVL | binds
3 | SH56 (Fab, V domains shown, Fab/phage) VH: EVQLLESGGGVVQPGRSLRLSCAASGFTFSSYGMHWVRQAPGKGLEWVAVVYYDGSNKHYSDSVKGRFTIFRDNSKNTLYLQMDSLRAEDTAVYYCARERNFRSGYSRYYYGMDVWGPGTTVTVSS VL: AELTQSPSSLSASVGDRVTITCRASQSISRYLNWYQQKPGKAPKLLIYAASSLQSGVPSRFSGSGSGTDFALTISSLLPEDFATYYCQQGYSTPPYSFGQGTKLEIKR | binds

Reference: US20060177440A1 (published 2006)
